Measured values published in the Immune Epitope Database (IEDB).

Columns and labels:
Test in all cases: IEDB peptide-MHC binding, purified MHC/competitive/radioactivity; ≥ and ≤ were set here for values at or beyond the usual limits of such assays
Settings in all cases: source organism: Bordetella pertussis
HLA-B*53:01 = target: HLA-B*53:01
HLA-B*07:02 = target: HLA-B*07:02
HLA-B*57:01 = target: HLA-B*57:01
HLA-B*44:03 = target: HLA-B*44:03
HLA-A*02:01 = target: HLA-A*02:01

LVYYESIAY
IC50 (HLA-B*53:01): 12 µM

SPQPIRATV
IC50 (HLA-B*07:02): 0.149 µM

HSLYASYEY
IC50 (HLA-B*53:01): 42.5 µM
IC50 (HLA-B*57:01): 0.116 µM

IAHRTELRG
IC50 (HLA-B*57:01): 66.2 µM

IENTAKLSG
IC50 (HLA-B*44:03): 44.4 µM

AAMQGAVVH
IC50 (HLA-B*44:03): ≥ 78.2 µM

RVTVSGGSL
IC50 (HLA-B*07:02): 14.5 µM

GLTDGVSRI
IC50 (HLA-A*02:01): 69.4 µM

SEAMAAWSE
IC50 (HLA-B*44:03): 7.6 µM

AAPAAHADW
IC50 (HLA-B*57:01): 19.8 µM

LNDSKITMG
IC50 (HLA-B*53:01): ≥ 78.2 µM

WLTWLAILA
IC50 (HLA-A*02:01): 40.1 µM
